The values below come from US20150344570A1 (published 2015).

Sequences and labels used below:
B1: GpH7-B3 variant H268_13S/GpL16-k0 (antibody, human IgG1, kappa)
heavy: not shown
light: DIVMTQSPLSLPVTPGEPASISCQASESLVHSNRNTYLHWYLQKPGQSPQLLIYKVSNRFSGVPDRFSGSGSGTDFTLKISRVEAEDVGVYYCSQNTHVPPTFGQGTKVEIERTVAAPSVFIFPPSDEQLKSGTASVVCLLNNFYPREAKVQWKVDNALQSGNSQESVTEQDSKDSTYSLSSTLTLSKADYEKHKVYACEVTHQGLSSPVTKSFNRGEC
notes: both H chains mutated; also called Ho Ab
B2: GpH7-B3 variant K326_10E/GpL16-k0 (antibody, human IgG1, kappa)
heavy: not shown
light: DIVMTQSPLSLPVTPGEPASISCQASESLVHSNRNTYLHWYLQKPGQSPQLLIYKVSNRFSGVPDRFSGSGSGTDFTLKISRVEAEDVGVYYCSQNTHVPPTFGQGTKVEIERTVAAPSVFIFPPSDEQLKSGTASVVCLLNNFYPREAKVQWKVDNALQSGNSQESVTEQDSKDSTYSLSSTLTLSKADYEKHKVYACEVTHQGLSSPVTKSFNRGEC
notes: as for B1
B3: GpH7-B3 variant I336_08L/GpL16-k0 (antibody, human IgG1, kappa)
heavy: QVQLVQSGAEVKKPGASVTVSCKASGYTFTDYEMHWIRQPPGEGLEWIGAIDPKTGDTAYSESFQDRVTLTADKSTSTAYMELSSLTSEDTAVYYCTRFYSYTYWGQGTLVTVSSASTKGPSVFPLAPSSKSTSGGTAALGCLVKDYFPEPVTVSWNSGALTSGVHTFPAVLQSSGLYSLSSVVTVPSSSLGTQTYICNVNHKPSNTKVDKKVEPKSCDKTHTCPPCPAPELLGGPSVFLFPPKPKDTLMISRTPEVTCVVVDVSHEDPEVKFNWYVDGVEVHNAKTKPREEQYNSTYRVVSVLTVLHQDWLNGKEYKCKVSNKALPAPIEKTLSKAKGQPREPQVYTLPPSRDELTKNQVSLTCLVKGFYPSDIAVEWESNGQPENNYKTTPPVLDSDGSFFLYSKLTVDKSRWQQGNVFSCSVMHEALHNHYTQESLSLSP
light: DIVMTQSPLSLPVTPGEPASISCQASESLVHSNRNTYLHWYLQKPGQSPQLLIYKVSNRFSGVPDRFSGSGSGTDFTLKISRVEAEDVGVYYCSQNTHVPPTFGQGTKVEIERTVAAPSVFIFPPSDEQLKSGTASVVCLLNNFYPREAKVQWKVDNALQSGNSQESVTEQDSKDSTYSLSSTLTLSKADYEKHKVYACEVTHQGLSSPVTKSFNRGEC
notes: as for B1
B4: GpH7-B3 variant I332_06M/GpL16-k0 (antibody, human IgG1, kappa)
heavy: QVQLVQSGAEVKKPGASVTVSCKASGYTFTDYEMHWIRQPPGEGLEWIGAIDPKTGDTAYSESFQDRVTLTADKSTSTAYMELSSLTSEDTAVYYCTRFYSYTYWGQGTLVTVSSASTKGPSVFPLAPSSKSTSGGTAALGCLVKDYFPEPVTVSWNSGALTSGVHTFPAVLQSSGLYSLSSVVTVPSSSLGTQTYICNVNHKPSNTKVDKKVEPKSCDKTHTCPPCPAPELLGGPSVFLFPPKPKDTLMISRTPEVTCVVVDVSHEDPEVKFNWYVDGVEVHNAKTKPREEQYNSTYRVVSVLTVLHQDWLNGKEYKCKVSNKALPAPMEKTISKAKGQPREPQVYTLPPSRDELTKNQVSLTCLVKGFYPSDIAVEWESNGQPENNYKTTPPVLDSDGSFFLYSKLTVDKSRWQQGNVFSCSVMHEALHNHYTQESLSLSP
light: DIVMTQSPLSLPVTPGEPASISCQASESLVHSNRNTYLHWYLQKPGQSPQLLIYKVSNRFSGVPDRFSGSGSGTDFTLKISRVEAEDVGVYYCSQNTHVPPTFGQGTKVEIERTVAAPSVFIFPPSDEQLKSGTASVVCLLNNFYPREAKVQWKVDNALQSGNSQESVTEQDSKDSTYSLSSTLTLSKADYEKHKVYACEVTHQGLSSPVTKSFNRGEC
notes: as for B1
B5: GpH7-B3 variant I336_06M/GpL16-k0 (antibody, human IgG1, kappa)
heavy: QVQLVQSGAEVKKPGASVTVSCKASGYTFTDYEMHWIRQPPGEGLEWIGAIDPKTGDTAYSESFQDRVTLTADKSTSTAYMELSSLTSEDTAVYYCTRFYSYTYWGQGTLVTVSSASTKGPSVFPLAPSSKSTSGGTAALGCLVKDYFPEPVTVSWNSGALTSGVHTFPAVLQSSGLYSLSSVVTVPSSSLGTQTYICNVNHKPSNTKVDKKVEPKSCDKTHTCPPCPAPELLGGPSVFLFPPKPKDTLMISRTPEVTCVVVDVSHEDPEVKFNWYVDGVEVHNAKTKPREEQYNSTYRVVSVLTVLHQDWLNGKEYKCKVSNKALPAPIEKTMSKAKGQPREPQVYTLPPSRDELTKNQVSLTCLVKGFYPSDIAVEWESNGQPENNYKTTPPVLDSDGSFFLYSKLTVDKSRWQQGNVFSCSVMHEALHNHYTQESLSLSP
light: DIVMTQSPLSLPVTPGEPASISCQASESLVHSNRNTYLHWYLQKPGQSPQLLIYKVSNRFSGVPDRFSGSGSGTDFTLKISRVEAEDVGVYYCSQNTHVPPTFGQGTKVEIERTVAAPSVFIFPPSDEQLKSGTASVVCLLNNFYPREAKVQWKVDNALQSGNSQESVTEQDSKDSTYSLSSTLTLSKADYEKHKVYACEVTHQGLSSPVTKSFNRGEC
notes: as for B1
B6: GpH7-B3 variant K326_19Q/GpL16-k0 (antibody, human IgG1, kappa)
heavy: not shown
light: DIVMTQSPLSLPVTPGEPASISCQASESLVHSNRNTYLHWYLQKPGQSPQLLIYKVSNRFSGVPDRFSGSGSGTDFTLKISRVEAEDVGVYYCSQNTHVPPTFGQGTKVEIERTVAAPSVFIFPPSDEQLKSGTASVVCLLNNFYPREAKVQWKVDNALQSGNSQESVTEQDSKDSTYSLSSTLTLSKADYEKHKVYACEVTHQGLSSPVTKSFNRGEC
notes: as for B1
B7: GpH7-B3 variant K326_14T/GpL16-k0 (antibody, human IgG1, kappa)
heavy: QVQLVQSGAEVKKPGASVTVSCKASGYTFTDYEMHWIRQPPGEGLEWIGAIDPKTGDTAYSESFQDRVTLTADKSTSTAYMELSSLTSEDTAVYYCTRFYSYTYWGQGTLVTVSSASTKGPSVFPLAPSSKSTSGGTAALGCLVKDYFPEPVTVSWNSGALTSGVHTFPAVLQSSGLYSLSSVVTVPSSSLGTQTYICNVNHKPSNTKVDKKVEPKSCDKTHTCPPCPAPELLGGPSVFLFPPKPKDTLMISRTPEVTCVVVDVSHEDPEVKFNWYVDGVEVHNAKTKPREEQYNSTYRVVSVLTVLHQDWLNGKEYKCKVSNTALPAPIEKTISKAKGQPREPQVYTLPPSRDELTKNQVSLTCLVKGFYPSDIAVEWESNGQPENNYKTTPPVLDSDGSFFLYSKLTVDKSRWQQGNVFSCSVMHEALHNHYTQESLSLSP
light: DIVMTQSPLSLPVTPGEPASISCQASESLVHSNRNTYLHWYLQKPGQSPQLLIYKVSNRFSGVPDRFSGSGSGTDFTLKISRVEAEDVGVYYCSQNTHVPPTFGQGTKVEIERTVAAPSVFIFPPSDEQLKSGTASVVCLLNNFYPREAKVQWKVDNALQSGNSQESVTEQDSKDSTYSLSSTLTLSKADYEKHKVYACEVTHQGLSSPVTKSFNRGEC
notes: as for B1
B8: GpH7-B3 variant K326_09D/GpL16-k0 (antibody, human IgG1, kappa)
heavy: not shown
light: DIVMTQSPLSLPVTPGEPASISCQASESLVHSNRNTYLHWYLQKPGQSPQLLIYKVSNRFSGVPDRFSGSGSGTDFTLKISRVEAEDVGVYYCSQNTHVPPTFGQGTKVEIERTVAAPSVFIFPPSDEQLKSGTASVVCLLNNFYPREAKVQWKVDNALQSGNSQESVTEQDSKDSTYSLSSTLTLSKADYEKHKVYACEVTHQGLSSPVTKSFNRGEC
notes: as for B1
B9: GpH7-B3 variant I332_03V/GpL16-k0 (antibody, human IgG1, kappa)
heavy: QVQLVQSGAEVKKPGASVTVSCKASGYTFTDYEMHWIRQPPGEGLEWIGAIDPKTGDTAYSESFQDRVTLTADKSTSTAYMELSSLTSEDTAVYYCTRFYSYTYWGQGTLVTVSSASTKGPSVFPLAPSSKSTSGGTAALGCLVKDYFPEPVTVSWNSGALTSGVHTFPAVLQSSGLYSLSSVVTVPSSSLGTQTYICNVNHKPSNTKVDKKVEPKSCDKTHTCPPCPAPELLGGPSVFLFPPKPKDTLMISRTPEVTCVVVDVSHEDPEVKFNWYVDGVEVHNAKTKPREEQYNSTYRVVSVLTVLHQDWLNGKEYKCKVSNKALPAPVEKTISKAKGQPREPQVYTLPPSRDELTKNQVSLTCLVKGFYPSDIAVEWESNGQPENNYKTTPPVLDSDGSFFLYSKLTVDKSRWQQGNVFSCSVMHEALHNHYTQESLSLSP
light: DIVMTQSPLSLPVTPGEPASISCQASESLVHSNRNTYLHWYLQKPGQSPQLLIYKVSNRFSGVPDRFSGSGSGTDFTLKISRVEAEDVGVYYCSQNTHVPPTFGQGTKVEIERTVAAPSVFIFPPSDEQLKSGTASVVCLLNNFYPREAKVQWKVDNALQSGNSQESVTEQDSKDSTYSLSSTLTLSKADYEKHKVYACEVTHQGLSSPVTKSFNRGEC
notes: as for B1
B10: GpH7-B3 variant I332_09D/GpL16-k0 (antibody, human IgG1, kappa)
heavy: not shown
light: DIVMTQSPLSLPVTPGEPASISCQASESLVHSNRNTYLHWYLQKPGQSPQLLIYKVSNRFSGVPDRFSGSGSGTDFTLKISRVEAEDVGVYYCSQNTHVPPTFGQGTKVEIERTVAAPSVFIFPPSDEQLKSGTASVVCLLNNFYPREAKVQWKVDNALQSGNSQESVTEQDSKDSTYSLSSTLTLSKADYEKHKVYACEVTHQGLSSPVTKSFNRGEC
notes: as for B1
B11: GpH7-B3 variant K326_06M/GpL16-k0 (antibody, human IgG1, kappa)
heavy: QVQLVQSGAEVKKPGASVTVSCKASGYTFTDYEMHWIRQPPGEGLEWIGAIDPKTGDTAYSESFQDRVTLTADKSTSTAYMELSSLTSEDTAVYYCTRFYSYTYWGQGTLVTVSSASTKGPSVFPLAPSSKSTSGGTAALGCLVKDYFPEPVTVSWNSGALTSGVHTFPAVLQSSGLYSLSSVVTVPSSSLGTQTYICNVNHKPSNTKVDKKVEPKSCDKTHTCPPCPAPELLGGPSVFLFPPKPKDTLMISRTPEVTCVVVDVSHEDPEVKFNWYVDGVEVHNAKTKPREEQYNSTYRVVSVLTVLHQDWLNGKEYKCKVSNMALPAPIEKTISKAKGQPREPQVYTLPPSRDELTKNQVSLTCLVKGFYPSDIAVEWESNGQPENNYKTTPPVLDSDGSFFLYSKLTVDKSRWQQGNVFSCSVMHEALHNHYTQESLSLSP
light: DIVMTQSPLSLPVTPGEPASISCQASESLVHSNRNTYLHWYLQKPGQSPQLLIYKVSNRFSGVPDRFSGSGSGTDFTLKISRVEAEDVGVYYCSQNTHVPPTFGQGTKVEIERTVAAPSVFIFPPSDEQLKSGTASVVCLLNNFYPREAKVQWKVDNALQSGNSQESVTEQDSKDSTYSLSSTLTLSKADYEKHKVYACEVTHQGLSSPVTKSFNRGEC
notes: as for B1
B12: GpH7-B3 variant I332_16H/GpL16-k0 (antibody, human IgG1, kappa)
heavy: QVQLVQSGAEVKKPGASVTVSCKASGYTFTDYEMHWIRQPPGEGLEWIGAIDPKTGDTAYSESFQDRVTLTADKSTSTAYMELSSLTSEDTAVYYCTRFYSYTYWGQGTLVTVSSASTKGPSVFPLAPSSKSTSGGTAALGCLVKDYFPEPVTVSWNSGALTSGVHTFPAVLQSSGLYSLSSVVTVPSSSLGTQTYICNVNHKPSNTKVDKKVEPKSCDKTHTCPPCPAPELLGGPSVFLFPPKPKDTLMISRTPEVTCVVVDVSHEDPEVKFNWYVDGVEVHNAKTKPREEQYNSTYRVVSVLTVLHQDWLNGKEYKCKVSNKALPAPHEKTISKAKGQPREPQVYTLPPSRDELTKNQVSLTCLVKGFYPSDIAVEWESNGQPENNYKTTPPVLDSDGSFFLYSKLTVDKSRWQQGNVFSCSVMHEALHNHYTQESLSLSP
light: DIVMTQSPLSLPVTPGEPASISCQASESLVHSNRNTYLHWYLQKPGQSPQLLIYKVSNRFSGVPDRFSGSGSGTDFTLKISRVEAEDVGVYYCSQNTHVPPTFGQGTKVEIERTVAAPSVFIFPPSDEQLKSGTASVVCLLNNFYPREAKVQWKVDNALQSGNSQESVTEQDSKDSTYSLSSTLTLSKADYEKHKVYACEVTHQGLSSPVTKSFNRGEC
notes: as for B1
B13: GpH7-B3 variant H268_18N/GpL16-k0 (antibody, human IgG1, kappa)
heavy: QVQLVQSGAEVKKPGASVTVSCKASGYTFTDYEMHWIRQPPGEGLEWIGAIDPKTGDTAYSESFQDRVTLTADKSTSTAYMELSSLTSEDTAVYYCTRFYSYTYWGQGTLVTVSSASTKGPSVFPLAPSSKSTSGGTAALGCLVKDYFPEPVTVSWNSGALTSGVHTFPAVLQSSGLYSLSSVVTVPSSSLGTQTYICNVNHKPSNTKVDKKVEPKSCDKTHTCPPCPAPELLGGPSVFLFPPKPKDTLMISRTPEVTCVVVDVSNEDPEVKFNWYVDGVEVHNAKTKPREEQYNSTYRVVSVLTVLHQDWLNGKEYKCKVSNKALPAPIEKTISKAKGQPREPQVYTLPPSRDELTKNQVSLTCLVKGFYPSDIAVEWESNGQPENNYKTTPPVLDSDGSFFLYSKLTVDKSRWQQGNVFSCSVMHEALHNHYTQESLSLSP
light: DIVMTQSPLSLPVTPGEPASISCQASESLVHSNRNTYLHWYLQKPGQSPQLLIYKVSNRFSGVPDRFSGSGSGTDFTLKISRVEAEDVGVYYCSQNTHVPPTFGQGTKVEIERTVAAPSVFIFPPSDEQLKSGTASVVCLLNNFYPREAKVQWKVDNALQSGNSQESVTEQDSKDSTYSLSSTLTLSKADYEKHKVYACEVTHQGLSSPVTKSFNRGEC
notes: as for B1
B14: GpH7-B3 variant I332_04F/GpL16-k0 (antibody, human IgG1, kappa)
heavy: not shown
light: DIVMTQSPLSLPVTPGEPASISCQASESLVHSNRNTYLHWYLQKPGQSPQLLIYKVSNRFSGVPDRFSGSGSGTDFTLKISRVEAEDVGVYYCSQNTHVPPTFGQGTKVEIERTVAAPSVFIFPPSDEQLKSGTASVVCLLNNFYPREAKVQWKVDNALQSGNSQESVTEQDSKDSTYSLSSTLTLSKADYEKHKVYACEVTHQGLSSPVTKSFNRGEC
notes: as for B1
B15: GpH7-B3 variant I332_15Y/GpL16-k0 (antibody, human IgG1, kappa)
heavy: not shown
light: DIVMTQSPLSLPVTPGEPASISCQASESLVHSNRNTYLHWYLQKPGQSPQLLIYKVSNRFSGVPDRFSGSGSGTDFTLKISRVEAEDVGVYYCSQNTHVPPTFGQGTKVEIERTVAAPSVFIFPPSDEQLKSGTASVVCLLNNFYPREAKVQWKVDNALQSGNSQESVTEQDSKDSTYSLSSTLTLSKADYEKHKVYACEVTHQGLSSPVTKSFNRGEC
notes: as for B1
B16: GpH7-B3 variant I332_13S/GpL16-k0 (antibody, human IgG1, kappa)
heavy: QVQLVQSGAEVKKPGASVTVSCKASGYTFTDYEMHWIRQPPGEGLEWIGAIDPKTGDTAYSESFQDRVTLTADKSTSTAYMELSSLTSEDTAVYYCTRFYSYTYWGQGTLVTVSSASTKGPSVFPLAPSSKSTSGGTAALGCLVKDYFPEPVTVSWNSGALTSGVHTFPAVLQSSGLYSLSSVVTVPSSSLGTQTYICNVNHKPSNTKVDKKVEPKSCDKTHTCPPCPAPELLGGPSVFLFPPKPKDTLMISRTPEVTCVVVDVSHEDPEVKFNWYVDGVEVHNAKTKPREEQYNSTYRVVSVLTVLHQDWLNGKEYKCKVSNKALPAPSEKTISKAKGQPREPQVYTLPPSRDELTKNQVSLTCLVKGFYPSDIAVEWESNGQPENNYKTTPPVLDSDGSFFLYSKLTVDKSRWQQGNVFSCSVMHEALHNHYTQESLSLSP
light: DIVMTQSPLSLPVTPGEPASISCQASESLVHSNRNTYLHWYLQKPGQSPQLLIYKVSNRFSGVPDRFSGSGSGTDFTLKISRVEAEDVGVYYCSQNTHVPPTFGQGTKVEIERTVAAPSVFIFPPSDEQLKSGTASVVCLLNNFYPREAKVQWKVDNALQSGNSQESVTEQDSKDSTYSLSSTLTLSKADYEKHKVYACEVTHQGLSSPVTKSFNRGEC
notes: as for B1
B17: GpH7-B3 variant I332_10E/GpL16-k0 (antibody, human IgG1, kappa)
heavy: not shown
light: DIVMTQSPLSLPVTPGEPASISCQASESLVHSNRNTYLHWYLQKPGQSPQLLIYKVSNRFSGVPDRFSGSGSGTDFTLKISRVEAEDVGVYYCSQNTHVPPTFGQGTKVEIERTVAAPSVFIFPPSDEQLKSGTASVVCLLNNFYPREAKVQWKVDNALQSGNSQESVTEQDSKDSTYSLSSTLTLSKADYEKHKVYACEVTHQGLSSPVTKSFNRGEC
notes: as for B1
B18: GpH7-B3 variant I332_19Q/GpL16-k0 (antibody, human IgG1, kappa)
heavy: not shown
light: DIVMTQSPLSLPVTPGEPASISCQASESLVHSNRNTYLHWYLQKPGQSPQLLIYKVSNRFSGVPDRFSGSGSGTDFTLKISRVEAEDVGVYYCSQNTHVPPTFGQGTKVEIERTVAAPSVFIFPPSDEQLKSGTASVVCLLNNFYPREAKVQWKVDNALQSGNSQESVTEQDSKDSTYSLSSTLTLSKADYEKHKVYACEVTHQGLSSPVTKSFNRGEC
notes: as for B1
B19: GpH7-B3 variant I332_18N/GpL16-k0 (antibody, human IgG1, kappa)
heavy: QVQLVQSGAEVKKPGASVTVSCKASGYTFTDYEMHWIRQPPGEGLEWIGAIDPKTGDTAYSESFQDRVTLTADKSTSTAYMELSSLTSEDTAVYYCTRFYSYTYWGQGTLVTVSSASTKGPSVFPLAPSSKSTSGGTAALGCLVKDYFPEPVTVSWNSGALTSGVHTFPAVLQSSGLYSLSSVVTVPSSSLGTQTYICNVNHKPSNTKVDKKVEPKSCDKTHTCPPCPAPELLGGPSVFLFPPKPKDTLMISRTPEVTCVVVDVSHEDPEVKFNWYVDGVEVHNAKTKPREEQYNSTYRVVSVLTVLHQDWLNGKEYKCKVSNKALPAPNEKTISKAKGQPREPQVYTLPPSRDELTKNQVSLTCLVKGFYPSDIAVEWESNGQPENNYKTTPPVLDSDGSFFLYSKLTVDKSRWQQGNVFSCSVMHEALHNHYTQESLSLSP
light: DIVMTQSPLSLPVTPGEPASISCQASESLVHSNRNTYLHWYLQKPGQSPQLLIYKVSNRFSGVPDRFSGSGSGTDFTLKISRVEAEDVGVYYCSQNTHVPPTFGQGTKVEIERTVAAPSVFIFPPSDEQLKSGTASVVCLLNNFYPREAKVQWKVDNALQSGNSQESVTEQDSKDSTYSLSSTLTLSKADYEKHKVYACEVTHQGLSSPVTKSFNRGEC
notes: as for B1
B20: GpH7-B3 variant I332_14T/GpL16-k0 (antibody, human IgG1, kappa)
heavy: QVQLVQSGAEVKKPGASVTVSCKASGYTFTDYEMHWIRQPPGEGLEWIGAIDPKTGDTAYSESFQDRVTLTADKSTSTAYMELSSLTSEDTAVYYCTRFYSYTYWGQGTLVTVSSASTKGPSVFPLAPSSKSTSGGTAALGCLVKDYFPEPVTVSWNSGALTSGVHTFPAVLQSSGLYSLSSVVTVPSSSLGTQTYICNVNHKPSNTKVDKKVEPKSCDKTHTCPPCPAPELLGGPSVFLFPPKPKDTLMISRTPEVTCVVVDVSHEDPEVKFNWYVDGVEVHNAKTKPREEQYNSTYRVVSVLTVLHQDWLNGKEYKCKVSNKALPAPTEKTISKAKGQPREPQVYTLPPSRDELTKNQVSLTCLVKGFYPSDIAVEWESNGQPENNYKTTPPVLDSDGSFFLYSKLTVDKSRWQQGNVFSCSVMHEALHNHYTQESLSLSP
light: DIVMTQSPLSLPVTPGEPASISCQASESLVHSNRNTYLHWYLQKPGQSPQLLIYKVSNRFSGVPDRFSGSGSGTDFTLKISRVEAEDVGVYYCSQNTHVPPTFGQGTKVEIERTVAAPSVFIFPPSDEQLKSGTASVVCLLNNFYPREAKVQWKVDNALQSGNSQESVTEQDSKDSTYSLSSTLTLSKADYEKHKVYACEVTHQGLSSPVTKSFNRGEC
notes: as for B1

The assay deals with T1, FcγRIIa H (FcγRIIa type H, His at position 131), extracellular domain with C-terminal His tag (human, UniProt P12318 34-217).
T1 construct: extracellular domain; also called FcgRIIa H; 2aH
T1 sequence (looked up): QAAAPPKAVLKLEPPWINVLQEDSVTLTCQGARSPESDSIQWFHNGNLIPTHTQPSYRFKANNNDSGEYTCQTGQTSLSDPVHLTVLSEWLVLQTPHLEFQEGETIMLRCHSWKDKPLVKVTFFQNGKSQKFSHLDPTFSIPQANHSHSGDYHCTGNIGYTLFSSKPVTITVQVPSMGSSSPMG
The assay is described as follows: SPR Biacore, relative binding, GpH7-B3/GpL16-k0 (HoCon Ab)=100. The procedure: Analysis of interaction between objective antibody and the FcγR was carried out using Biacore T100 (GE Healthcare). HBS-EP+ (GE Healthcare) was used as the running buffer, and the measurement temperature was set to 25° C. Chips produced by immobilizing the antigen peptide by the amine coupling method to a Series S Sencor Chip CM5 (GE Healthcare), or alternatively, chips produced by allowing preliminarily biotinylated antigen peptides to interact with and immobilize onto a Series S Sensor Chip SA (certified) (GE Healthcare) were used. Antibodies of interest were captured onto an antigen peptide-immobilized chip, and allowed to interact to each FcγR diluted with running buffer. To regenerate and repeatedly use the chip, the antibodies captured on the chip were washed off by reacting 10 mM glycine-HCl, pH 1.5.
With B1, the Ho/Con_2aH is 114 % of control. The result for B2 reads 101 % of control. With B3, the Ho/Con_2aH was 101 % of control. The result for B4 reads 114 % of control; that for B5, 100 % of control. In the case of B6, the Ho/Con_2aH is 100 % of control. The result for B7 reads 118 % of control. The result for B8 reads 113 % of control; that for B9, 106 % of control; that for B10, 130 % of control. The result for B11 reads 101 % of control. Regarding B12, the Ho/Con_2aH is 119 % of control. The same measure for B13: 110 % of control. The result for B14 reads 111 % of control. The same measure for B15: 126 % of control; for B16: 121 % of control. Regarding B17, the Ho/Con_2aH is 117 % of control.

As to B18, the Ho/Con_2aH is 114 % of control. The same measure for B19: 118 % of control; for B20: 125 % of control.
